Molecular target: OLFM4 recombinant protein (SPR) (UniProt Q3UZZ4)
Test: SPR

Chain of UniProt Q3UZZ4 (Q3UZZ4 19-505): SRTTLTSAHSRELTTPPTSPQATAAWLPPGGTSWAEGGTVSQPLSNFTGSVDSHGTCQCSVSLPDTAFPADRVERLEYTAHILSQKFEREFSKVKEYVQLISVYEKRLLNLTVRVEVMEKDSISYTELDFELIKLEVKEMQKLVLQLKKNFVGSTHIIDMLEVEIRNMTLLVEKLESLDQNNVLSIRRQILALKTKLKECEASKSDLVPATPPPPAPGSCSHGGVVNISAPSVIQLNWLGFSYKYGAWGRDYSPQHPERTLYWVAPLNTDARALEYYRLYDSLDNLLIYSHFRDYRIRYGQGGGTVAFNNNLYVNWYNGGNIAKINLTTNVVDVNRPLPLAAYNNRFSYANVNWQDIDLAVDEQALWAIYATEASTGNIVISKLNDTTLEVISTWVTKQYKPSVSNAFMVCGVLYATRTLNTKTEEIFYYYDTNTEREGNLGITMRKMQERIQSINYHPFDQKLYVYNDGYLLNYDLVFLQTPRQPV

For “MTDH protein, extracellular domain (SPR) (from UniProt Q80WJ7 1-48) (domain or fragment)”, the Kd was 0.0219 nM.
